Source: patent publication US5185323A, “Suppression of megakaryocytopoiesis employing platelet factor 4 antimaturation factor” (Temple University, priority 1988, dated 1993)

Tests used:
Format in all cases: cell-based
[1] = system: normal human erythroid colony forming units (CFU-E); assay: Erythroid colony formation (CFU-E) in plasma clot culture (specificity assay); details: concentrations of PF4 which consistently inhibited megakaryocyte colony formation; FIG. 4
Source text: FIG. 4 graphically illustrates the effect of highly purified platelet factor 4 (PF4) on clonogenicity of normal human erythroid colony forming units (CFU-E) in plasma clot culture in the absence of accessory marrow immunocytes. Isolated bone marrow mononuclear cells (MNC) were depleted of adherent monocyte-macrophages and lymphocytes, as detailed in the Examples. After seven days in culture, plates were harvested and fixed and CFU-E detected by benzidine staining. Results of three separate experiments, each performed in quadruplicate culture plates, are shown. The effect of purified protein on inhibition of erythroid colony formation was tested.

[2] = system: human megakaryocyte progenitor cells; assay: Megakaryocyte colony formation in co-culture with autologous T lymphocyte subsets
Source text: (§1) Megakaryocyte colonies were cloned in plasma clot cultures as previously described (e.g., Blood 61: 384-9, 1983). The cell population cultured consisted of either unseparated high density marrow mononuclear cells (MNC), or MNC depleted of adherent monocytemacrophages (MO) and T lymphocytes using methods previously reported (e.g., J. Immunol. 2915-2925, 1987). To provide essential growth factors, all cultures were supplemented with normal human AB serum (30% v/v) derived from the platelet-poor plasma of a single donor.
(§2) Megakaryocyte colonies were enumerated by indirect immunofluorescence assay utilizing a rabbit anti-human platelet glycoprotein antiserum as a megakaryocyte probe (ibid.). […] A cluster of three or more intensely fluorescent cells was counted as one colony. Unless otherwise stated, all data are reported as the mean± S.D. of colonies enumerated.
Since the majority of marrow T lymphocytes are of the suppressor type, and PF4 is described in the prior art as inactivating these cells, the results obtained in Examples IA and IB were unexpected. In fact, it was anticipated that colony formation might be increased because of unopposed T helper activity. Putative progenitor cell-T cell-PF4 interactions were accordingly studied. Control target cells, depleted of adherent monocytes and T lymphocytes were cloned in plasma clots under standard conditions (Table 3). Aliquots of these target cells were also cloned in the presence of either CD4^+ helper, or CD8^+ suppressor T cells alone, or T effector cells plus PF4 at two different concentrations, 2.5 and 25 μg/ml.

[3] = system: normal human megakaryocyte progenitor cells; assay: Megakaryocyte colony formation in plasma clot culture, unseparated marrow MNC (proliferation assay); details: control ~11 colonies
Procedure: FIG. 1 graphically illustrates the effect of highly purified platelet factor 4 (PF4) on clonogenicity of normal human megakaryocyte progenitor cells in plasma clot culture. Bone marrow mononuclear cells (MNC) were isolated by density gradient sedimentation and then suspended in the appropriate culture medium, to which was added PF4 in the amounts indicated. The cell suspensions were plated, and cultured for twelve days at 37° C. in a humidified environment containing 5% CO2, and resulting megakaryocyte colonies were then enumerated in situ with an indirect immunofluorescence assay using a polyspecific antiplatelet glycoprotein antiserum as probe. Aggregate results (mean±S.D.) of five separate experiments are shown. Numbers at top of bars indicate p value in comparison to control (CONT.).
Megakaryocyte colonies were cloned in plasma clot cultures as previously described (e.g., Blood 61: 384-9, 1983). […]
Megakaryocyte colonies were enumerated by indirect immunofluorescence assay utilizing a rabbit anti-human platelet glycoprotein antiserum as a megakaryocyte probe (ibid.). […] A cluster of three or more intensely fluorescent cells was counted as one colony. […]
To determine if PF4 could modify megakaryocyte colony formation in vitro, a screen assay was performed by adding various amounts of pure protein to unseparated marrow MNC. […] In the presence of 2.5 μg/ml of PF4, ~7 colonies were counted. […]

[4] = system: human megakaryocyte progenitor cells; assay: Megakaryocyte colony formation in plasma clot culture, MNC depleted of adherent monocyte-macrophages and T lymphocytes; details: PF4 25 μg/ml; four experiments (FIG. 3)
Source text: FIG. 3 graphically illustrates the effect of highly purified platelet factor 4 (PF4) on normal human megakaryocyte colony formation in vitro in the absence of accessory marrow immunocytes. Isolated bone marrow mononuclear cells (MNC) were depleted of adherent monocyte-macrophages and lymphocytes and treated as detailed in the Examples. Each line represents the result of a single experiment performed in quadruplicate culture plates. p values in comparison to control are indicated for each experiment.
as §1
as §2, with “enumerated. […]” for “enumerated.”

B1: platelet factor 4 (protein, UniProt P02776 32-101, looked up)
Platelet factor 4: EAEEDGDLQCLCVKTTSQVRPRHITSLEVIKAGPHCPTAQLIATLKNGRKICLDLQAPLYKKIIKKLLES
notes: Megakaryocyte/platelet-specific α-granule protein purified from outdated human platelets by heparin-agarose chromatography, >95% pure
inhibition of erythroid colony formation units (CFU-E) [1]: no inhibition
dependence of colony suppressive effect on T lymphocytes [2]: indifferent to the presence of T lymphocytes
effect on colony formation in presence of CD4+ (helper) cells ([2]; PF4 2.5 μg/ml): unchanged
megakaryocyte colonies enumerated (mean ± SEM) ([2]; Study 1, C/T4 2:1 + PF4 2.5 μg/ml, control 7 ± 2, C/T4 alone 11 ± 0): 8 ± 1 colonies
megakaryocyte colonies enumerated (mean ± SEM) ([2]; Study 1, C/T8 2:1 + PF4 2.5 μg/ml, control 7 ± 2, C/T8 alone 6 ± 1): 18 ± 2 colonies
megakaryocyte colonies enumerated (mean ± SEM) ([2]; Study 2, C/T4 2:1 + PF4 2.5 μg/ml, control 4 ± 1, C/T4 alone 3 ± 1): 5 ± 1 colonies
megakaryocyte colonies enumerated (mean ± SEM) ([2]; Study 3, C/T8 2:1 + PF4 2.5 μg/ml, control 11 ± 3): 7 ± 2 colonies
megakaryocyte colonies enumerated (mean ± SEM) ([2]; Study 3, C/T8 2:1 + PF4 25 μg/ml, control 11 ± 3, p < .05): 1 ± 0 colonies
megakaryocyte colonies enumerated (mean ± SEM) ([2]; Study 4, C/T4 2:1 + PF4 2.5 μg/ml, control 116 ± 6, C/T4 alone 141 ± 22): 122 ± 29 colonies
megakaryocyte colonies enumerated (mean ± SEM) ([2]; Study 4, C/T4 2:1 + PF4 25 μg/ml, control 116 ± 6, C/T4 alone 141 ± 22, p < .05): 8 ± 1 colonies
megakaryocyte colonies enumerated (mean ± SEM) ([2]; Study 4, C/T8 2:1 + PF4 2.5 μg/ml, control 116 ± 6, C/T8 alone 163 ± 13, p < .05): 87 ± 15 colonies
megakaryocyte colonies enumerated (mean ± SEM) ([2]; Study 4, C/T8 2:1 + PF4 25 μg/ml, control 116 ± 6, C/T8 alone 163 ± 13, p < .05): 13 ± 2 colonies
megakaryocyte colonies enumerated (mean ± SEM) ([2]; Study 5, C/T4 2:1 + PF4 25 μg/ml, control 33 ± 6, C/T4 alone 39 ± 4, p < .05): 3 ± 1 colonies
megakaryocyte colonies enumerated (mean ± SEM) ([2]; Study 5, C/T8 2:1 + PF4 2.5 μg/ml, control 33 ± 6): 33 ± 4 colonies
megakaryocyte colonies enumerated (mean ± SEM) ([2]; Study 5, C/T8 2:1 + PF4 25 μg/ml, control 33 ± 6, p < .05): 3 ± 1 colonies
effect on colony formation in presence of T cells ([2]; high concentration of PF4): highly significant decrease in colony formation
megakaryocyte colonies enumerated ([3]; PF4 2.5 μg/ml, not significant (p>0.05), aggregate of five experiments): ~ 7 colonies per 2×105 MNC plated
megakaryocyte colonies enumerated ([3]; PF4 25 μg/ml, p<0.007, aggregate of five experiments): five
effect on megakaryocyte colony formation [4]: greatly inhibited in each of the experiments
mean inhibition of megakaryocyte colony formation [4]: ~ 78%
